The results in this text go back to patent US7329737 (DYAX, dated 2008).

Changes are numbered by the printed parent chain.

To fix the notation:
B1: M0132-H11 (Fab, V domains shown)
VH: EVQLLESGGGLVQPGGSLRLSCAASGFTFSHYQMHWVRQAPGKGLEWVSRIRSSGGATSYADSVKGRFTISRDNSKNTLYLQMNSLRAEDTAVYYCARGGGYSYYFDYWGQGTLVTVSS
VL: AQYELTQPPSASGTPGQRVTISCSGSSSNIGSNYVYWYQQLPGTAPKLLIYRNNQRPSGVPDRFSGSKSGTSASLAISGLRSEDEADYYCAAWDDSLSGHAVFGGGTQLTVLG
B2: M0132-D02 (Fab, V domains shown)
VH: EVQLLESGGGLVQPGGSLRLSCAASGFTFSHYPMDWVRQAPGKGLEWVSYIGPSGGSTRYADSVKGRFTISRDNSKNTLYLQMNSLRAEDTAVYYCARHVPPGTWGQGTLVTVSS
VL: AQSALTQPRSVSGSPGQSVTISCTGTSSDVNYVSWYQQHPGKAPKLMIYAVTKRPSGVPDRFSGSKSGNTASLTVSGLQAEDEADYYCSSYAGSNNLVFGGGTKLTVLG
B3: M0138-C04 (Fab, V domains shown)
VH: EVQLLESGGGLVQPGGSLRLSCAASGFTFSHYHMQWVRQAPGKGLEWVSGIRSSGGVTGYSDSVKGRFTISRDNSKNTLYLQMNSLRAEDTAVYYCAREVTMVRGVYYYYYGMDVWGQGTTVTVSS
VL: AQYELTQPASVSGSPGQSITISCTGTSSDVGAYNYVSWYQHHPGKAPKLLIYDVSNRPSGISSRFSGSKSGNTASLTISGLQAEDEADYYCSSYTSSYTWVFGGGTKLTVLS
B4: M0132-D08 (Fab, V domains shown)
VH: EVQLLESGGGLVQPGGSLRLSCAASGFTFSHYLMYWVRQAPGKGLEWVSWIGPSGGHTMYADSVKGRFTISRDNSKNTLYLQMNSLRAEDTAVYYCARLQQGLDYWGQGTLVTVSS
VL: DIQMTQSPSTLSASVGDRVTITCRASQSISNWLAWYQQKPGKAPKLLIYMASTLESGVPSRFSGSGSGTEFTLTISSLQPADFATYYCQQYNSYSVTFGGGTKVEIKR
B5: M0135-C12 (Fab, V domains shown)
VH: EVQLLESGGGLVQPGGSLRLSCAASGFTFSRYHMSWVRQAPGKGLEWVSSIRPSGGSTIYADSVKGRFTISRDNSKNTLYLQMNSLRAEDTAVYYCAREPRRYYYDSSGSYDAFDIWGQGTMVTVSS
VL: AQSELTQPPSMSGTPGQRVIISCSGSNSNIGNNFVYWYQQVAGSAPKLLIFRNNQRPSGVPDRFTVSKSGASASLAIGGLRSEDEADYYCAAWDDSLSGVLFGGGTKVTVLG
B6: M0104-H12 (Fab, V domains shown)
VH: EVQLLESGGGLVQPGGSLRLSCAASGFTFSYYQMSWVRQAPGKGLEWVSRIGPSGGLTSYADSVKGRFTISRDNSKNTLYLQMNSLRAEDTAVYYCARVGVWYGMDVWGQGTLVTVSS
VL: AQSELTQPPSASGSPGQSVTISCTGTSSDVGAYNYVSWYQQHPGKAPKLIIYEVNKRPSGVPDRFSASKSGNTASLTVSGLQAEDEADYYCNSYAGSNSLIFGGGTKLTVLG
B7: M0111-C10 (Fab, V domains shown)
VH: B6 VH with Y31R, Q33V, R50S, G52R, P53S, L57R, S59M, L113T
VL: DIQMTQSPSSLSASVGDRVTITCRASQSISSYLNWYQQKPEKAPQLLIFAASSLQSGVPSRFSGSGSGTDFTLTISSLQPEDFATYYCQQSYNAPWTFGQGTKVEIRR
B8: M0139-F09 (Fab, V domains shown)
VH: B6 VH with Y31H, Q33V, S35A, L57Y, S59M, L113T
VL: DIQMTQSPGTLSLSPGERATLSCRASQSVSSSYLAWYQQKPGQAPRLLIYGASSRATGIPDRFSGSGSGTDFTLTISSLQLEDFGTYFCQQSYRSPYTFGQGTKVDIKR
B9: M0135-F03 (Fab, V domains shown)
VH: B6 VH with Y31H, Q33V, S35I, R50W, G52Y, L57N, S59I, V93T, L113T
VL: DIQMTQSPATLSLSPGERATLSCRASQSVSSYLAWYQQKPGQAPRLLIYDASNRATGIPARFSGSGSGTDFTLTISSLEPEDFAVYYCQQRSNWPSPIAFGQGTRLEIKR
B10: M0138-B10 (Fab, V domains shown)
VH: EVQLLESGGGLVQPGGSLRLSCAASGFTFSHYSMTWVRQAPGKGLEWVSRIYPSGGRTGYADSVKGRFTISRDNSKNTLYLQMNSLRAEDTAVYYCATDSGGYYYGMDVWGQGTTVTVSS
VL: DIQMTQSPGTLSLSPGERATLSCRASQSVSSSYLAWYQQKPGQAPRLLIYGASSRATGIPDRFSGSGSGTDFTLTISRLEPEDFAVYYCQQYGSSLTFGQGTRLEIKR
B11: M0097-F04 (Fab, V domains shown)
VH: EVQLLESGGGLVQPGGSLRLSCAASGFTFSPYQMWWVRQAPGKGLEWVSSISSSGGLTRYADSVKGRFTISRDNSKNTLYLQMNSLRAEDMAVYYCARVKLNYYGSGSYSLDAFDIWGQGTNGHRLKRLHQGPIGLPASTLLQEH
VL: AQYELTQPPSASGTPGQRVTISCSGSSSNIGSNYVHWYQQLPGTAPKLLIYRNNRRPSGVPDRFSGSKSGTSASLAISGLRSEDEADYYCAAWDDSLSGLVVFGGGTKLTVLGQPKAAP
B12: M0094-E08 (Fab, V domains shown)
VH: EVQLLESGGGLVQPGGSLRLSCAASGFTFSFYAMVWVRQAPGKGLEWVSYISPSGGATWYADSVKGRFTISRDNSKNTLYLQMNSLRAEDTAVYYCAKPSRPRYYYDSSGYYSSAFDIWGQGTMVTVSS
VL: AQSVLTQPASVSGSPGQSITISCTGTSSDVGAYNYVSWYQQHPGKVPELMIYDVSNRPSGVSHRFSGSKSGNTASLTISGLQAEDDADYYCSSFTSRKTWVFGTGTKVTVLG
B13: M0104-A12 (Fab, V domains shown)
VH: EVQLLESGGGLVQPGGSLRLSCAASGFTFSHYNMGWVRQAPGKGLEWVSRIGSSGGKTAYADSVKGRFTISRDNSKNTLYLQMNSLRAEDTAVYYCAKTNYDFWSGYLPNPNPYPLDYWGQGTLVTVSS
VL: DIQMTQSPSSLSASVGDRVTITCRASQSIGASLNWYQQKPQKAPKLLIYTASNLQSGVPSRFSGSGSGTDFTLTISSLLPEDFATYYCQQNYRGRTFGQGTKLEIKR

This assay concerns the target T1, hK1 (human tissue kallikrein 1), recombinant (human, UniProt P06870 25-262).
T1 construct: Expressed in P. pastoris from KLK1 cDNA and purified; enzymatically active; also called KLK1; Recombinant (Pichia) Kallikrein
Nature of the assay: SPR.
B1: the Kd (in general, a measure of binding affinity in units of concentration) turned out to be 4.5 nM; the koff (usually a measure of how fast the partners let go of each other) is 0.00198 s⁻¹; the kon (usually a measure of how fast the partners come together) is 440000 M⁻¹ s⁻¹.

Regarding B2, the Kd came to 4.22 nM, the koff is 0.00303 s⁻¹ and the on-rate constant (kon) stood at 717000 M⁻¹ s⁻¹.

As for B3, the Kd stood at 4.26 nM, the koff was 0.000728 s⁻¹ and the kon came out at 171000 M⁻¹ s⁻¹.

Take B4: the Kd was 4.73 nM, the koff was 0.000923 s⁻¹ and the kon was found to be 195000 M⁻¹ s⁻¹.

On to B5, for which the equilibrium dissociation constant (Kd) stood at 3.1 nM, the koff came to 0.000376 s⁻¹ and the kon is 121000 M⁻¹ s⁻¹.

For the molecule B6, the Kd was determined as 2.43 nM, the koff came out at 0.00138 s⁻¹ and the kon is 567000 M⁻¹ s⁻¹.

With B7, the dissociation constant Kd was 3.29 nM, the koff came to 0.00341 s⁻¹ and the on-rate constant (kon) came out at 1.04e+06 M⁻¹ s⁻¹.

For B8, the Kd came to 3.6 nM, the koff turned out to be 0.00108 s⁻¹ and the kon worked out at 301000 M⁻¹ s⁻¹.

As for B9, the equilibrium dissociation constant (Kd) was 2.66 nM, the koff came out at 0.000625 s⁻¹ and the kon was 235000 M⁻¹ s⁻¹.

For the molecule B10, the Kd came to 3.36 nM, the dissociation rate constant (koff) came out at 0.00089 s⁻¹ and the kon amounted to 265000 M⁻¹ s⁻¹.

Take B11: the Kd was found to be 3.26 nM, the koff worked out at 0.000346 s⁻¹ and the kon was 106000 M⁻¹ s⁻¹.

As to B12, the Kd came out at 3.34 nM, the koff stood at 0.00053 s⁻¹ and the kon turned out to be 159000 M⁻¹ s⁻¹.

In the case of B13, the Kd stood at 3.66 nM, the dissociation rate constant (koff) came to 0.00246 s⁻¹ and the kon came to 673000 M⁻¹ s⁻¹.
